Reference: US20200165325A1

Assays:
[1] = biological target: HIV-1 Env of strain 0330.v4.c3 (HIV-1)
[2] = biological target: HIV-1 Env of strain 0815.v3.c3 (HIV-1)
[3] = biological target: HIV-1 Env of strain 1006_11_C3_1601 (HIV-1)
[4] = biological target: HIV-1 Env of strain 1054_07_TC4_1499 (HIV-1)
[5] = biological target: HIV-1 Env of strain 1056_10_TA11_1826 (HIV-1)
[6] = biological target: HIV-1 Env of strain 3016.v5.c45 (HIV-1)
[7] = biological target: HIV-1 Env of strain 3301.v1.c24 (HIV-1)
[8] = biological target: HIV-1 Env of strain 3415.v1.c1 (HIV-1)
[9] = biological target: HIV-1 Env of strain 3718.v3.c11 (HIV-1)
[10] = biological target: HIV-1 Env of strain 3817.v2.c59 (HIV-1)
[11] = biological target: HIV-1 Env of strain 62357_14_D3_4589 (HIV-1)
[12] = biological target: HIV-1 Env of strain 6480.v4.c25 (HIV-1)
[13] = biological target: HIV-1 Env of strain 6535.3 (HIV-1)
[14] = biological target: HIV-1 Env of strain 6540.v4.c1 (HIV-1)
[15] = biological target: HIV-1 Env of strain 6545.v4.c1 (HIV-1)
[16] = biological target: HIV-1 Env of strain 6811.v7.c18 (HIV-1)
[17] = biological target: HIV-1 Env of strain 703357.C02 (HIV-1)
[18] = biological target: HIV-1 Env of strain 89-F1_2_25 (HIV-1)
[19] = biological target: HIV-1 Env of strain 928-28 (HIV-1)
[20] = biological target: HIV-1 Env of strain AC10.0.29 (HIV-1)
[21] = biological target: HIV-1 Env of strain C1080.c03 (HIV-1)
[22] = biological target: HIV-1 Env of strain C2101.c01 (HIV-1)
[23] = biological target: HIV-1 Env of strain C3347.c11 (HIV-1)
[24] = biological target: HIV-1 Env of strain CAAN5342.A2 (HIV-1)
[25] = biological target: HIV-1 Env of strain CNE17 (HIV-1)
[26] = biological target: HIV-1 Env of strain CNE20 (HIV-1)
[27] = biological target: HIV-1 Env of strain CNE21 (HIV-1)
[28] = biological target: HIV-1 Env of strain CNE30 (HIV-1)
[29] = biological target: HIV-1 Env of strain CNE58 (HIV-1)
[30] = biological target: HIV-1 Env of strain Ce0393_C3 (HIV-1)
[31] = biological target: HIV-1 Env of strain Ce0682_E4 (HIV-1)
[32] = biological target: HIV-1 Env of strain Ce1176_A3 (HIV-1)
[33] = biological target: HIV-1 Env of strain Ce2060_G9 (HIV-1)
[34] = biological target: HIV-1 Env of strain Ce703010054_2A2 (HIV-1)
[35] = biological target: HIV-1 Env of strain Du172.17 (HIV-1)
[36] = biological target: HIV-1 Env of strain HIV-16845-2.22 (HIV-1)
[37] = biological target: HIV-1 Env of strain P0402_c2_11 (HIV-1)
[38] = biological target: HIV-1 Env of strain P1981_C5_3 (HIV-1)
[39] = biological target: HIV-1 Env of strain PVO.4 (HIV-1)
[40] = biological target: HIV-1 Env of strain Q23.17 (HIV-1)
[41] = biological target: HIV-1 Env of strain Q461.e2 (HIV-1)
[42] = biological target: HIV-1 Env of strain Q769.d22 (HIV-1)
[43] = biological target: HIV-1 Env of strain Q842.d12 (HIV-1)
[44] = biological target: HIV-1 Env of strain R1166.c01 (HIV-1)
[45] = biological target: HIV-1 Env of strain REJO4541.67 (HIV-1)
[46] = biological target: HIV-1 Env of strain RHPA4259.7 (HIV-1)
[47] = biological target: HIV-1 Env of strain SC422661.8 (HIV-1)
[48] = biological target: HIV-1 Env of strain T250-4 (HIV-1)
[49] = biological target: HIV-1 Env of strain T251-18 (HIV-1)
[50] = biological target: HIV-1 Env of strain TRJO4551.58 (HIV-1)
[51] = biological target: HIV-1 Env of strain WEAU_d15_410_787 (HIV-1)
[52] = biological target: HIV-1 Env of strain X1254_c3 (HIV-1)
[53] = biological target: HIV-1 Env of strain X2131_C1_B5 (HIV-1)
[54] = biological target: HIV-1 Env of strain ZM109F.PB4 (HIV-1)
[55] = biological target: HIV-1 Env of strain ZM214M.PL15 (HIV-1)
[56] = biological target: HIV-1 Env of strain ZM247v1(Rev-) (HIV-1)
[57] = biological target: HIV-1 Env of strain ZM249M.PL1 (HIV-1)

NIH45-46 IgG (wild type) (antibody) showed an In vitro neutralization IC80 [1] of 0.3 µg/mL, an In vitro neutralization IC80 [2] of 0.052 µg/mL and an In vitro neutralization IC80 [3] of 0.196 µg/mL. It also gave an In vitro neutralization IC80 [4] of 0.404 µg/mL, an In vitro neutralization IC80 [5] of 0.447 µg/mL and an In vitro neutralization IC80 [6] greater than 50 µg/mL. For the same substance, the In vitro neutralization IC80 [7] was 0.033 µg/mL, the In vitro neutralization IC80 [8] was 0.086 µg/mL and the In vitro neutralization IC80 [9] was greater than 50 µg/mL. The In vitro neutralization IC80 [10] was greater than 50 µg/mL, the In vitro neutralization IC80 [11] was 0.19 µg/mL and the In vitro neutralization IC80 [12] was 0.1 µg/mL. It also gave an In vitro neutralization IC80 [13] of 0.54 µg/mL, an In vitro neutralization IC80 [14] greater than 50 µg/mL and an In vitro neutralization IC80 [15] greater than 50 µg/mL. For the same substance, the In vitro neutralization IC80 [16] was 0.113 µg/mL, the In vitro neutralization IC80 [17] was greater than 50 µg/mL and the In vitro neutralization IC80 [18] was greater than 50 µg/mL. The In vitro neutralization IC80 [19] was 0.64 µg/mL, the In vitro neutralization IC80 [20] was 1.93 µg/mL and the In vitro neutralization IC80 [21] was 11.6 µg/mL. It also gave an In vitro neutralization IC80 [22] of 31.4 µg/mL, an In vitro neutralization IC80 [23] of 0.094 µg/mL and an In vitro neutralization IC80 [24] of 0.4 µg/mL. For the same substance, the In vitro neutralization IC80 [25] was 0.734 µg/mL, the In vitro neutralization IC80 [26] was greater than 50 µg/mL and the In vitro neutralization IC80 [27] was 38.1 µg/mL. The In vitro neutralization IC80 [28] was 1.07 µg/mL, the In vitro neutralization IC80 [29] was 2.08 µg/mL and the In vitro neutralization IC80 [30] was 0.936 µg/mL. The In vitro neutralization IC80 [31] was 0.155 µg/mL, the In vitro neutralization IC80 [32] was 3.17 µg/mL and the In vitro neutralization IC80 [33] was 0.29 µg/mL. For the same substance, the In vitro neutralization IC80 [34] was 0.538 µg/mL, the In vitro neutralization IC80 [35] was greater than 50 µg/mL and the In vitro neutralization IC80 [36] was 22.6 µg/mL. For the same substance, the In vitro neutralization IC80 [37] was 0.214 µg/mL, the In vitro neutralization IC80 [38] was 0.24 µg/mL and the In vitro neutralization IC80 [39] was 0.41 µg/mL. For the same substance, the In vitro neutralization IC80 [40] was 0.5 µg/mL, the In vitro neutralization IC80 [41] was 0.291 µg/mL and the In vitro neutralization IC80 [42] was 0.033 µg/mL. The In vitro neutralization IC80 [43] was 0.073 µg/mL, the In vitro neutralization IC80 [44] was 1.21 µg/mL and the In vitro neutralization IC80 [45] was 0.035 µg/mL. For the same substance, the In vitro neutralization IC80 [46] was 0.047 µg/mL, the In vitro neutralization IC80 [47] was 0.13 µg/mL and the In vitro neutralization IC80 [48] was greater than 50 µg/mL. It also gave an In vitro neutralization IC80 [49] of 3.68 µg/mL, an In vitro neutralization IC80 [50] of 0.13 µg/mL and an In vitro neutralization IC80 [51] of 0.015 µg/mL. It also gave an In vitro neutralization IC80 [52] of 0.107 µg/mL, an In vitro neutralization IC80 [53] of 0.88 µg/mL and an In vitro neutralization IC80 [54] of 0.437 µg/mL. It also gave an In vitro neutralization IC80 [55] of 0.59 µg/mL, an In vitro neutralization IC80 [56] of 24.5 µg/mL and an In vitro neutralization IC80 [57] of 0.053 µg/mL.
